Measurements published in US20160151487A1 (Hoffmann-La Roche, published 2016).
Where a chain is given by its changes, count along the chain named. In names and notes the source's numbering stands.

B1: <IGF-1R> IgG1 knob wt, hole H310A, H433A, Y436A (antibody)
light: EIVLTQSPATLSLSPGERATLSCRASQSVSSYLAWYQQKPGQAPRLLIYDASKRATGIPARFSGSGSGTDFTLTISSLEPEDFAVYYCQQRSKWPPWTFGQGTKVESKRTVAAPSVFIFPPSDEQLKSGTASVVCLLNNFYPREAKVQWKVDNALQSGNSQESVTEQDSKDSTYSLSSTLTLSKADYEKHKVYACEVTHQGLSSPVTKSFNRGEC
heavy 1: not shown
heavy 2: QVELVESGGGVVQPGRSQRLSCAASGFTFSSYGMHWVRQAPGKGLEWVAIIWFDGSSTYYADSVRGRFTISRDNSKNTLYLQMNSLRAEDTAVYFCARELGRRYFDLWGRGTLVSVSSASTKGPSVFPLAPSSKSTSGGTAALGCLVKDYFPEPVTVSWNSGALTSGVHTFPAVLQSSGLYSLSSVVTVPSSSLGTQTYICNVNHKPSNTKVDKKVEPKSCDKTHTCPPCPAPELLGGPSVFLFPPKPKDTLMISRTPEVTCVVVDVSHEDPEVKFNWYVDGVEVHNAKTKPREEQYNSTYRVVSVLTVLAQDWLNGKEYKCKVSNKALPAPIEKTISKAKGQPREPQVCTLPPSRDELTKNQVSLSCAVKGFYPSDIAVEWESNGQPENNYKTTPPVLDSDGSFFLVSKLTVDKSRWQQGNVFSCSVMHEALANHATQKSLSLSPGK
notes: also called IGF-1R 0035; anti-IGF-1R antibody (knobs-into-holes), one chain with H310A/H433A/Y436A
B2: <IGF-1R> IgG1 knob wt, hole L251D, L314D, L432D (antibody)
light: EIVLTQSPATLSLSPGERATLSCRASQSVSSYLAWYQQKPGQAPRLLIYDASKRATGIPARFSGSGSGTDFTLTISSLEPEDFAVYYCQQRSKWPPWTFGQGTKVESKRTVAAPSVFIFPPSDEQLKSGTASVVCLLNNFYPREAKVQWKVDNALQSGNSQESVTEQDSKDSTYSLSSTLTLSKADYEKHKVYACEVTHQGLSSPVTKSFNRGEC
heavy 1: not shown
heavy 2: QVELVESGGGVVQPGRSQRLSCAASGFTFSSYGMHWVRQAPGKGLEWVAIIWFDGSSTYYADSVRGRFTISRDNSKNTLYLQMNSLRAEDTAVYFCARELGRRYFDLWGRGTLVSVSSASTKGPSVFPLAPSSKSTSGGTAALGCLVKDYFPEPVTVSWNSGALTSGVHTFPAVLQSSGLYSLSSVVTVPSSSLGTQTYICNVNHKPSNTKVDKKVEPKSCDKTHTCPPCPAPELLGGPSVFLFPPKPKDTDMISRTPEVTCVVVDVSHEDPEVKFNWYVDGVEVHNAKTKPREEQYNSTYRVVSVLTVLHQDWDNGKEYKCKVSNKALPAPIEKTISKAKGQPREPQVCTLPPSRDELTKNQVSLSCAVKGFYPSDIAVEWESNGQPENNYKTTPPVLDSDGSFFLVSKLTVDKSRWQQGNVFSCSVMHEADHNHYTQKSLSLSPGK
notes: T0033 lists L234A/L235A/P329G for IGF-1R 0037; also called IGF-1R 0037; anti-IGF-1R antibody (knobs-into-holes), one chain with L251D/L314D/L432D
B3: <IGF-1R> IgG1 knob wt, hole M252Y, S254T, T256E (antibody)
light: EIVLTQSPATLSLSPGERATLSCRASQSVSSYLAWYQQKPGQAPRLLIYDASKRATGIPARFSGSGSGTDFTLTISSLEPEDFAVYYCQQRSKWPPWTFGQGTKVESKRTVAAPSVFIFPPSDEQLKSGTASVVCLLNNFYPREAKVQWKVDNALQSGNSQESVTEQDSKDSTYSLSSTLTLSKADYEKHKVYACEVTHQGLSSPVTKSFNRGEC
heavy 1: not shown
heavy 2: QVELVESGGGVVQPGRSQRLSCAASGFTFSSYGMHWVRQAPGKGLEWVAIIWFDGSSTYYADSVRGRFTISRDNSKNTLYLQMNSLRAEDTAVYFCARELGRRYFDLWGRGTLVSVSSASTKGPSVFPLAPSSKSTSGGTAALGCLVKDYFPEPVTVSWNSGALTSGVHTFPAVLQSSGLYSLSSVVTVPSSSLGTQTYICNVNHKPSNTKVDKKVEPKSCDKTHTCPPCPAPELLGGPSVFLFPPKPKDTLYITREPEVTCVVVDVSHEDPEVKFNWYVDGVEVHNAKTKPREEQYNSTYRVVSVLTVLHQDWLNGKEYKCKVSNKALPAPIEKTISKAKGQPREPQVCTLPPSRDELTKNQVSLSCAVKGFYPSDIAVEWESNGQPENNYKTTPPVLDSDGSFFLVSKLTVDKSRWQQGNVFSCSVMHEALHNHYTQKSLSLSPGK
notes: T0033 lists L234A/L235A/P329G for IGF-1R 0036; also called IGF-1R 0036; anti-IGF-1R antibody (knobs-into-holes), one chain with M252Y/S254T/T256E
B4: <IgF-1R> IgG1 knob wt, hole I253A, H310A, H435A (antibody)
light: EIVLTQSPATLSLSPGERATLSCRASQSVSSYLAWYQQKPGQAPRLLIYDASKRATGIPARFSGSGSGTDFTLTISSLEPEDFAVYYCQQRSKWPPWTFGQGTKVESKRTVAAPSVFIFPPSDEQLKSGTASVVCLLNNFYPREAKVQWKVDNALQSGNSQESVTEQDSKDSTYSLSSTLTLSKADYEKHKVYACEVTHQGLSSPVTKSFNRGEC
heavy 1: not shown
heavy 2: QVELVESGGGVVQPGRSQRLSCAASGFTFSSYGMHWVRQAPGKGLEWVAIIWFDGSSTYYADSVRGRFTISRDNSKNTLYLQMNSLRAEDTAVYFCARELGRRYFDLWGRGTLVSVSSASTKGPSVFPLAPSSKSTSGGTAALGCLVKDYFPEPVTVSWNSGALTSGVHTFPAVLQSSGLYSLSSVVTVPSSSLGTQTYICNVNHKPSNTKVDKKVEPKSCDKTHTCPPCPAPELLGGPSVFLFPPKPKDTLMASRTPEVTCVVVDVSHEDPEVKFNWYVDGVEVHNAKTKPREEQYNSTYRVVSVLTVLAQDWLNGKEYKCKVSNKALPAPIEKTISKAKGQPREPQVCTLPPSRDELTKNQVSLSCAVKGFYPSDIAVEWESNGQPENNYKTTPPVLDSDGSFFLVSKLTVDKSRWQQGNVFSCSVMHEALHNAYTQKSLSLSPGK
notes: T0033 lists L234A/L235A/P329G for IGF-1R 0034; also called IGF-1R 0034; anti-IGF-1R antibody (knobs-into-holes), one chain with I253A/H310A/H435A
B5: <IGF-1R> IgG1 with M252Y, S254T, T256E (antibody)
light: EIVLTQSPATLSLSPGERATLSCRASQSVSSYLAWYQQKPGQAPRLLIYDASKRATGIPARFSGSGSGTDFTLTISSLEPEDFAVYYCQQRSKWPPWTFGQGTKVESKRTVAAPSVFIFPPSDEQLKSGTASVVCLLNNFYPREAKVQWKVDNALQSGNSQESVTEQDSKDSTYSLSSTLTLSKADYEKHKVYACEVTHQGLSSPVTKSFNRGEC
heavy: QVELVESGGGVVQPGRSQRLSCAASGFTFSSYGMHWVRQAPGKGLEWVAIIWFDGSSTYYADSVRGRFTISRDNSKNTLYLQMNSLRAEDTAVYFCARELGRRYFDLWGRGTLVSVSSASTKGPSVFPLAPSSKSTSGGTAALGCLVKDYFPEPVTVSWNSGALTSGVHTFPAVLQSSGLYSLSSVVTVPSSSLGTQTYICNVNHKPSNTKVDKKVEPKSCDKTHTCPPCPAPELLGGPSVFLFPPKPKDTLYITREPEVTCVVVDVSHEDPEVKFNWYVDGVEVHNAKTKPREEQYNSTYRVVSVLTVLHQDWLNGKEYKCKVSNKALPAPIEKTISKAKGQPREPQVYTLPPSRDELTKNQVSLTCLVKGFYPSDIAVEWESNGQPENNYKTTPPVLDSDGSFFLYSKLTVDKSRWQQGNVFSCSVMHEALHNHYTQKSLSLSPG
notes: also called YTE-mutant of anti-IGF-1R antibody

Experiments:
[1] = molecular target: T1, human neonatal Fc-receptor (FcRn), soluble extracellular domain with His-Avi Tag, co-expressed with … (human, UniProt P55899 24-297; P61769 21-119, biotinylated (Avi Tag) for the affinity column); test: FcRn affinity chromatography
T1 construct: SPR: amine-coupled to a CM5 chip (400 RU), pH 6.0; also called huFcRn; FcRn/beta2-microglobulin
Procedure: Antibody samples containing 50 to 100 μg of protein were adjusted to pH 5.5 and applied to the FcRn column using ÄKTA explorer 10 XT or Dionex Summit (Dionex, Idstein, Germany). The column with 5 cm bed height was then washed with 5-10 column volumes of equilibration buffer 20 mM MES, 150 mM NaCl, pH 5.5. […] For complete elution of modified antibodies, the pH was increased in the gradient up to pH 8.8. The experiments were carried out at room temperature. The elution profile was obtained by continuous measurement of the absorbance at 280 nm. The time taken for an analyte peak, X, to reach the detector after sample injection was called the retention time.

[2] = molecular target: T1, human neonatal Fc-receptor (FcRn), …; test: SPR (BIAcore T100), FcRn immobilized on CM5 chip by amine coupling (400 RU), 200 nM antibody injected, PBS 0.05% Tween-20 pH 6.0, room temperature
Procedure: The binding properties of wild-type antibody and the mutants to FcRn were analyzed by surface plasmon resonance (SPR) technology using a BIAcore T100 instrument (BIAcore AB, Uppsala, Sweden). […] In the current assay, the FcRn receptor was immobilized onto a BIAcore CM5-biosensor chip (GE Healthcare Bioscience, Uppsala, Sweden) via amine coupling to a level of 400 Response units (RU). The assay was carried out at room temperature with PBS, 0.05% Tween-20TM pH 6.0 (GE Healthcare Bioscience) as running and dilution buffer. 200 nM of antibody samples were injected at a flow rate of 50 μL/min at room temperature. Association time was 180 seconds, dissociation phase took 360 seconds. Regeneration of the chip surface was reached by a short injection of HBS-P, pH 8.0. Evaluation of SPR-data was performed by comparison of the biological response signal height at 180 seconds after injection and at 300 seconds after injection. The corresponding parameters are the RU max level (180 seconds after injection) and late stability (300 seconds after end of injection).

T1 sequence (P55899 24-297 limits assumed, chain 1 of 2): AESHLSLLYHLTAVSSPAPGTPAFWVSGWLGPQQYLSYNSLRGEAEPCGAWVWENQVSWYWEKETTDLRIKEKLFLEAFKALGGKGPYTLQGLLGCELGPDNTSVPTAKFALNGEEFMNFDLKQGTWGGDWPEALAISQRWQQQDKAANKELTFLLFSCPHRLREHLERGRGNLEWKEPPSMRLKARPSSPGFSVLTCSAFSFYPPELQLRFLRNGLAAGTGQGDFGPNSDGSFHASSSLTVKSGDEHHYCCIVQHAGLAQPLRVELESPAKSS
T1 sequence (P61769 21-119 limits assumed, chain 2 of 2): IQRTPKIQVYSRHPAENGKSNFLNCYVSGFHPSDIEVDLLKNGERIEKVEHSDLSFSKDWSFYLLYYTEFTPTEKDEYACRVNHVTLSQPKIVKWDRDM

Binder | retention time on FcRn affinity column [1] | binding result [2]
B1 | 42.4 min | –
B2 | 40.9 min | –
B3 | 57.6 min | –
B4 | 42 min | –
B5 | – | binds
